{"source": "paper PMC7156744", "about": "“CdbA is a DNA-binding protein and c-di-GMP receptor important for nucleoid organization and segregation in Myxococcus xanthus” (Nature Communications, 2020)", "key": {"[1]": {"target": "T1, CdbA (Myxococcus xanthus, UniProt Q1D489)", "T1 construct": "gene MXAN_4361; full-length CdbA-His6 (67 amino acids), tetramer", "experiment": "ITC (also DRaCALA, SEC, HDX-MS; EMSA shows inhibition of DNA binding)"}, "[2]": {"target": "T2, CdbA-His6 (Myxococcus xanthus DK1622) (UniProt Q1D489)", "T2 sequence": "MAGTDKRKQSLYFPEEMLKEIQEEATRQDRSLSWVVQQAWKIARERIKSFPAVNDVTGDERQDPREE", "experiment": "EMSA", "conditions": "10x buffer: 380 mM HEPES, 380 mM NaCl, 50 mM MgCl2, 50% glycerol, 10 mM DTT, 15 ng/ul poly(dI-dC), 50 ng probe, 30 C 30 min, 10% PAGE 1x TBE 4 C, pH not …"}, "[3]": {"target": "CdbA-His6 (C-terminally His6-tagged CdbA, MXAN_4361) (Myxococcus xanthus)", "experiment": "SEC; analytical SEC, 200 µM CdbA wild-type or variant without c-di-GMP, Superdex S200 Increase 10/300 GL, SEC buffer (20 mM HEPES-Na pH 7.5, 200 mM NaCl, 20 mM MgCl2, 20 mM KCl), 4 °C; oligomer size from apparent molecular mass"}, "[4]": {"target": "CdbA-His6 (C-terminally His6-tagged CdbA, MXAN_4361) (Myxococcus xanthus)", "experiment": "crystal structure; crystal form two (tetrameric form) of full-length CdbA-His6, 0.1 M sodium malonate, 0.1 M HEPES-NaOH pH 7.0, 30% polyacrylic acid sodium salt 2100; molecular replacement; three copies in the asymmetric unit"}, "[5]": {"target": "CdbA-His6 (C-terminally His6-tagged CdbA, MXAN_4361) (Myxococcus xanthus)", "experiment": "crystal structure; crystal form one (dimeric form) of full-length CdbA-His6, 0.1 M MgCl2, 0.1 M HEPES-NaOH pH 7.0, 15% PEG 4000; SAD phasing with a Pt derivative; residues 5-52 traced"}, "[6]": {"target": "CdbA-His6 (C-terminally His6-tagged CdbA, MXAN_4361) (Myxococcus xanthus)", "experiment": "SEC; analytical SEC, 200 µM CdbA incubated with 200 µM c-di-GMP for 1 minute at 25 °C, Superdex S200 Increase 10/300 GL, SEC buffer, 4 °C; oligomer size from apparent molecular mass"}, "[7]": {"target": "CdbA-His6 (C-terminally His6-tagged CdbA, MXAN_4361) (Myxococcus xanthus)", "experiment": "crystal structure; crystal form one (dimeric form) of full-length CdbA-His6, 0.1 M MgCl2, 0.1 M HEPES-NaOH pH 7.0, 15% PEG 4000; SAD phasing with a Pt derivative; residues 5-52 traced", "remark": "listed apart in the source"}, "[8]": {"target": "CdbA^K8A/S10A-His6 (Myxococcus xanthus)", "experiment": "SEC; analytical SEC, 200 µM CdbA wild-type or variant without c-di-GMP, Superdex S200 Increase 10/300 GL, SEC buffer (20 mM HEPES-Na pH 7.5, 200 mM NaCl, 20 mM MgCl2, 20 mM KCl), 4 °C; oligomer size from apparent molecular mass"}, "[9]": {"target": "CdbA^R27A/R30A-His6 (Myxococcus xanthus)", "experiment": "SEC; analytical SEC, 200 µM CdbA wild-type or variant without c-di-GMP, Superdex S200 Increase 10/300 GL, SEC buffer (20 mM HEPES-Na pH 7.5, 200 mM NaCl, 20 mM MgCl2, 20 mM KCl), 4 °C; oligomer size from apparent molecular mass"}, "[10]": {"system": "CdbA-His6 (Myxococcus xanthus DK1622)", "experiment": "EMSA", "conditions": "10x buffer: 380 mM HEPES, 380 mM NaCl, 50 mM MgCl2, 50% glycerol, 10 mM DTT, 15 ng/ul poly(dI-dC), 50 ng probe, 30 C 30 min, 10% PAGE 1x TBE 4 C, pH not …"}}}
{"compound": "Nc1nc2c(ncn2[C@@H]2O[C@@H]3CO[P@](=O)(O)O[C@H]4[C@@H](O)[C@H](n5cnc6c(=O)[nH]c(N)nc65)O[C@@H]4CO[P@](=O)(O)O[C@H]3[C@H]2O)c(=O)[nH]1", "note": "[c-di-GMP]", "values": [{"measurement": "Kd", "setting": "[1]", "result": "~83", "unit": "nM"}]}
{"compound": "ACTTGGGTCTCCGGGGCGGATTCGGGGTGACGACCTGAACACACCTGGGCCGTTATCCGACAGACTCCCAAGTGGGTCAACGGTTTCCAAGGACTCATTCCGAGGTCGCACGGTCCGTCCCCGTGCTCGTCCAGTTGCACGTAAGCTGTGCAACCATGCGCGAAAAAGGAAACGCCCCGGACTCCACGAGGAAGTCCGGGGCGCTTCGGAAAGAGGGACCGCCTAGAGAAATCTCCAGGCGGGCCCGTGG (double strand) [cdbAB promoter]", "values": [{"measurement": "Kd", "setting": "[2]", "result": 900, "unit": "nM"}]}
{"compound": "CdbA-His6 (C-terminally His6-tagged CdbA, MXAN_4361) (natural protein)", "values": [{"measurement": "stoichiometry N", "setting": "[3]", "result": 4}, {"measurement": "stoichiometry N", "setting": "[4]", "result": 4}, {"measurement": "stoichiometry N", "setting": "[5]", "result": 4}, {"measurement": "stoichiometry N", "setting": "[6]", "result": 4}, {"measurement": "stoichiometry N", "setting": "[7]", "result": 2}]}
{"compound": "CdbA^K8A/S10A-His6 (natural protein)", "values": [{"measurement": "stoichiometry N", "setting": "[8]", "result": 4}]}
{"compound": "CdbA^R27A/R30A-His6 (natural protein)", "values": [{"measurement": "stoichiometry N", "setting": "[9]", "result": 4}]}
{"compound": "GACACACCTTCTCCGAGCGGCTTGCGGTGTTCGGGGGACTCGGGCTTGCGCTCGGGTTCGGCGCGGGCCTGCGCGGAGACGCGGAAGCCTTCACTGGGGTTCAGTGGATCTTCCCGGTCGGATCGAAGTGAATTTCTTGCGATCAGACCGACTTGTGAGAATGTACGCGCATCTACAGGAGGTCGCGCACATGGACATGAATCCCCGTCTTACCTCAGTGGTCTTCCGGCTCAACCGCGAGAAGCTCGAC (double strand) [MXAN_4058 promoter, two repeats mutated]", "values": [{"measurement": "Kd", "setting": "[2]", "result": 2500, "unit": "nM"}]}
{"compound": "GACACACCTTCTCCGAGCGGCTTGCGGTGTTCGGGGGACTCGGGCTTGCGCTCGGGTTCGGCGCGGGCCTGCGCGGAGACGCGGAAGCCTTCACTGGGGTTCAGTGGATCTTCCCGGTCGGATCGAAGTGAATTTCTTGCGATCAGACCGACTTGTGAGAATGTGTGCGCATCTACAGGAGGTCGCGCACATGGACATGAATCCCCGTCTTACCTCAGTGGTCTTCCGGCTCAACCGCGAGAAGCTCGAC (double strand) [MXAN_4058 promoter, one repeat mutated]", "values": [{"measurement": "Kd", "setting": "[2]", "result": 1100, "unit": "nM"}]}
{"compound": "GACACACCTTCTCCGAGCGGCTTGCGGTGTTCGGGGGACTCGGGCTTGCGCTCGGGTTCGGCGCGGGCCTGCGCGGAGACGCGGAAGCCTTCACTGGGGTTCAGTGGATCTTCCCGGTCGGATCGAAGTGAATTTCTTGCGATCAGACCGACTTGTGAGAATGTGTGCGCATCTGTAGGAGGTCGCGCACATGGACATGAATCCCCGTCTTACCTCAGTGGTCTTCCGGCTCAACCGCGAGAAGCTCGAC (double strand) [peak rank #1 fragment (MXAN_4058 promoter), WT]", "values": [{"measurement": "Kd", "setting": "[2]", "result": 400, "unit": "nM"}]}
{"compound": "cdbAB promoter", "values": [{"measurement": "Kd", "setting": "[10]", "result": 900, "unit": "nM"}]}
{"compound": "no-peak control fragment", "values": [{"measurement": "Kd", "setting": "[10]", "result": 4000, "unit": "nM"}]}
{"compound": "peak rank #1 fragment (MXAN_4058 promoter), WT", "values": [{"measurement": "Kd", "setting": "[10]", "result": 400, "unit": "nM"}]}
